Results on six sequences are retold here after the DeepSol protein solubility set.

This series in a line: soluble on expression in E. coli; label from the status in PepcDB or PDB records.
For “MKAILQRSIALLALAAGMSSVACADEVKMRVLGWYGNQPQSQQVERPFWKDLPKRSNGAFSANFRTIDELGLKGFESLRTLQSGAFDVVSFQISFVGGDAPVLMGADLPGAAFDFDQLQKNLDAYRPILEKELNDRFKAKLLTAWSFPFQILYCKGDIKTLDDLKGKKVRVSGTYTAKMVADLNAAGATLAGPEVYQGLMQGVVDCAITGSQYGNSNDWFEVAHSLSPIPLGGAGVVLQVARNAFWDKLSADQQAALSAEMKQLETALWDISRKGHEDGINCNVGKQPCTGKPGKMQLVEPTEADVREVKQLLKTSIVPMWIEDCSKFSKTCGDDWFRTIGAAAGIARLEHHHHHH”, the “soluble on expression in E. coli” value is given as “not soluble”.

Regarding “MGSDKIHHHHHHVPVSQLPSQPTDNNSSAATDVTPVVALKELVARLHREQNKIQDLLSSLGFALRSFNNLNQFLELIPLMATRVTDADGSALFLYKPNGQVRLEQLHWQDSGQRKNIRKALEIASSQITLLPNAAPLANATGILDDQMHRYLGPDVQIFGTAILVKHTERGWLYVLSRDPEYSWTETRQKLVRLVADQTAVAIENDELAVELRKKERLDQELEIGAEIQRRLLPRQCPTIPGAVLAARCKPANRVGGDYYDFIATNQNKIRSKTKGDTETGRWGLVIGDVMGKGVPAGLIMTMMRGMLRGEVLHGNSPAKILQNLNRVMYADLENSHRFVTLFYSEYNPHSRILSYSNAAHNPPLWWHAATKTVSRLDTLGMLIGLDANSQYEDAQVQLEPGDTIIYYTDGLTDAAAAGGDRFDEDNFVAGFNTACKYCNGPEEIVDYLFDQVQQFIGDDKQNTDDMTLVVLQIL”, the “soluble on expression in E. coli” value is “not soluble”.

For “MPVTRPAKINTYTRIIDASLALFNEEGERNISTNHIAAHLGISPGNLYYHFRNKDEIIVQLFKRYSEALLAYLNEAVLPSDVEDSINYMAGIYDVMWEYRFLFSDVNTLLARSAELLGEHNTFTQAKVSPLLVNLLTQLNGLNIIQADQTAMNDLAVNMWMVTKYWFDFDSSLRGRTKLTEDSKARGIRRTLSLLRPYLLPEHRKKYDRKIGNGNP”, the “soluble on expression in E. coli” value is “soluble”.

For the sequence “HQYFFAKLQEQQNRYAKYGETAYNLEPNIKNGPGGLRDLQILLSISKRHFKIKKLAEGIGYGFITDKEYEELKYCQNFLWRVRFALHMLAGKPEERLSFDYQVKLAQFFGYQDQSHILAIEQFMKDYFKVIKRNRELNEMLLQWFNETIVYHQKQKIIRLDDEFQLSNRFIEVRNNRVFKQNPQSILKLFYWLVKRPDIEGVRASTIRLI”, the “soluble on expression in E. coli” value is listed as “not soluble”.

For “MAVPGFTFDEALLTEIAASFQLRASNINALTALVQRLSGDFDRSTPQVMNMATGAGKTYVMAAFIEYMRRQGLRNVMIVTPGLVVQTKTVANFTQGSPKFIDGSPVPPRVVTPENYKSNPADQTAFTEQGASNVYVFNVQQLIGPKDMDGDTTSGSKAAVARGVHKFSEYAGVLYDELKNMDDLVVLADEHHLYSAKAKAFHAAIHDLEPAALVGLTASPGEKDETIFTYPLYKAIADKNVKQPVIVYRKDGYGELGEYQQLKDAKTLLETKAGHYAVKNQEEGTSPISPVMLVVCEDIAHATRIEETLVGPDLFGDPYAVLRVDSDSMNEEKAALLDAIDTPDSPVRAVVSVNKLKEGWDCRSIAVMVTLRAMDSDILTQQTLGRGLRLPYGKYAEVEAIDTLDIVAHESFQRLLSSEKVNKSFGFDKRKTSQPAPPQPVHPMDVTPPTPVPTPDLDPVPGGNTTAPTPVLPPADPQPVAPDLDKGTDTRPPLGLKELGGDGASPEDLYPEPTPLAVVELVEKFRDVSFLFPRTTYTAKNAAYPLEKLMQDEIIQVARQITDNPQAVLERLALAGDEAQGRVMAKRLTQGTIDAIALDEDAVKKQLVGAIITHRRVERSPENISQAKNRIAPLIYNNALATTWTVDTLHVASILLGKAIDASVRQFLANLEPDVTLVPLTMPTRTRFELGVGKTIEPRPGEFDKYINGQFYSGWTRNLYTAASFDSNSAEHKLACDLDVSPDVEWWTRLYMADGASIDYQVGKTYYPDFVVRDREGRTWIVEGKDAGGRTNEEVKAKRDAAELALNLMASNEDMGALKVGYIIAYEDTIKEAGSWSRLISMSGAVKSAN”, the “soluble on expression in E. coli” value is listed as “not soluble”.

In the case of “MKILLFICGEGLGHTGRCLALGKEFLAAGHEVNFGAYGYSKGLVQKTGYSAYEIPSEIKLAGEAGTFDIRKSIKETLNNLSPSGFRKILRLIEKLDPDVVLSDGYYTGILAAQKRKVPVYFIGHQFNMEEFFWKKGLFAGIAGIFVKRFYNYVFSSVDGIIVPDYPLPYSVNRKNFTISRAVNDNIFFSGPLIRCRYQEAGEKAFKRPNVLSTIGAFGYRAAVFRNVLEAAKLDPSIYYTFISGPEIDPEQFSKVPENVEFTGFTENPFPYYKGSDLVITAGGHGTIMESLAFGLPILSFPDEKHAEQENNASVLEEAGYGKRMSYLTPPEVILACIREIFEDENYSKKTRRLMELAEVLDGPAAVRKFLEEKHRGLEHHHHHH”, the “soluble on expression in E. coli” value is listed as “not soluble”.
